Source: article PMC11218506, “Characterization of the dual regulation by a c-di-GMP riboswitch Bc1 with a long expression platform from Bacillus thuringiensis”

Key:
Zur [1] = target: T1, Zur (Bacillus thuringiensis BMB171, UniProt A0A0G3E7H1 1-137); assay: EMSA; 100 uM MnCl2 (Mn2+ addition did not affect the interaction); 50 mM Tris-HCl pH 7.5, 10 mM MgCl2, 1 mM DTT, 100 mM NaCl, 100 uM MnCl2; 25 C, 30 min; 6% native PAGE in 0.5x TBE; DNA stated as 50 uM; details: protein: recombinant; tags: C-terminal 6xHis (pET28b); chain copies: 2; label: none (YeaRed gel stain); blunt
Zur [2] = target: T1, Zur; assay: EMSA; 100 uM MnCl2 per Methods; 50 mM Tris-HCl pH 7.5, 10 mM MgCl2, 1 mM DTT, 100 mM NaCl, 100 uM MnCl2; 25 C, 30 min; 6% native PAGE in 0.5x TBE; DNA stated as 50 uM; details: protein: recombinant; tags: C-terminal 6xHis (pET28b); chain copies: 2; label: none (YeaRed gel stain); blunt

Row | Binder | binding result (Zur [1]) | binding result (Zur [2])
1 | Bc1 dual terminator coding sequence (dsDNA) DNA 1: CCAATGCTTTTACATTGGCTTTTTTTTATTCTCGAACATATTGAGAAACATTTTCAAAC DNA 2: GTTTGAAAATGTTTCTCAATATGTTCGAGAATAAAAAAAAGCCAATGTAAAAGCATTGG | binds | 
2 | mutant Bc1 dual terminator coding sequence (dsDNA) DNA 1: CCAATGCTTTTACATTGGCTTTTTTTTATTCTCGAACATGCCACACCCATAAGCAGCCT DNA 2: AGGCTGCTTATGGGTGTGGCATGTTCGAGAATAAAAAAAAGCCAATGTAAAAGCATTGG |  | no binding
3 | ck+ (dhbA positive control) (dsDNA) DNA 1: TTATTTTTATAATTGATAATGATAATCATTATCAATAGATTGCGTTTTTC DNA 2: GAAAAACGCAATCTATTGATAATGATTATCATTATCAATTATAAAAATAA |  | binds
